Laboratory results from PMC5768893.

B1: PKCζ: Ogt KD (protein)
parent chain: MPSRTDPKMDRSGGRVRLKAHYGGDILITSVDAMTTFKDLCEEVRDMCGLHQQHPLTLKWVDSEGDPCTVSSQMELEEAFRLVCQGRDEVLIIHVFPSIPEQPGMPCPGEDKSIYRRGARRWRKLYRANGHLFQAKRFNRGAYCGQCSERIWGLSRQGYRCINCKLLVHKRCHVLVPLTCRRHMDSVMPSQEPPVDDKNDGVDLPSEETDGIAYISSSRKHDNIKDDSEDLKPVIDGVDGIKISQGLGLQDFDLIRVIGRGSYAKVLLVRLKKNDQIYAMKVVKKELVHDDEDIDWVQTEKHVFEQASSNPFLVGLHSCFQTTSRLFLVIEYVNGGDLMFHMQRQRKLPEEHARFYAAEICIALNFLHERGIIYRDLKLDNVLLDADGHIKLTDYGMCKEGLGPGDTTSTFCGTPNYIAPEILRGEEYGFSVDWWALGVLMFEMMAGRSPFDIITDNPDMNTEDYLFQVILEKPIRIPRFLSVKASHVLKGFLNKDPKERLGCRPQTGFSDIKSHAFFRSIDWDLLEKKQTLPPFQPQITDDYGLDNFDTQFTSEPVQLTPDDEDVIKRIDQSEFEGFEYINPLLLSAEESV
B2: PKCζ: T408A (protein)
parent chain: B1 parent chain
B3: PKCζ: Thiamet G (protein)
parent chain: B1 parent chain
B4: PKCζ: PUGNAc (protein)
parent chain: B1 parent chain

What was measured:
[1] = western blot anti-pT410 after FGF4 stimulation; conditions: glycan lost; control: control cells stimulated with FGF4
[2] = western blot and immunostaining, anti-pT410, endogenous PKCζ; conditions: glycan lost; control: control (Egfp shRNA) ESCs
[3] = western blot of phosphorylated PKCζ-FLAG; conditions: glycan lost; control: wild-type PKCζ-FLAG
[4] = anti-FLAG IP, anti-pT410 blot; conditions: glycan gained; control: untreated PKCζ-FLAG cells
[5] = western blot anti-pT410 during PrE differentiation; conditions: glycan gained; control: PrE day 4 cells without inhibitor

Protein | other: PKCζ Thr-410 phosphorylation [1] | other: PKCζ Thr-410 phosphorylation [2] | other: PKCζ phosphorylation [3] | other: PKCζ Thr-410 phosphorylation [4] | other: PKCζ Thr-410 phosphorylation [5]
B1 | increases | increases |  |  | 
B2 |  |  | no change |  | 
B3 |  |  |  | decreases | decreases
B4 |  |  |  | decreases | decreases
